Experimental data as given in article PMC5342261.

Assays:
VRC01 [1] = assay: ELISA
HJ16 = assay: ELISA
CH98 = assay: ELISA
B6 = assay: yeast display
VRC01 [2] = assay: yeast display
PGV04 = assay: yeast display
B12 = assay: yeast display

With AE.A244gp120 D368R the percent of parent (VRC01 [1]) was 23%, the percent of parent (HJ16) was 98% and the percent of parent (CH98) was 0%.

Substance AE.A244gp120 I371del; P363N has a percent of parent (HJ16) of 80% and a percent of parent (CH98) of 0%.

With AE.A244gp120 N276A the percent of parent (VRC01 [1]) was 51% and the percent of parent (CH98) was 0%.

In the case of AE.A244gp120 T278A, the percent of parent (VRC01 [1]) was 96%, the percent of parent (HJ16) was 13% and the percent of parent (CH98) was 19%.

Work on “B.YU2gp120 core (ΔV1, V2, V3 loops) D368R” yielded a percent of parent (B6) of 53%, a percent of parent (VRC01 [2]) of 13% and a percent of parent (PGV04) of 7%.

In the case of “B.YU2gp120 core (ΔV1, V2, V3 loops) D397F”, the percent of parent (B6) was 94%, the percent of parent (VRC01 [2]) was 73% and the percent of parent (B12) was 91%.

In the case of “B.YU2gp120 core (ΔV1, V2, V3 loops) E269G”, the percent of parent (B6) was 75%, the percent of parent (VRC01 [2]) was 82% and the percent of parent (B12) was 95%. It also gave a percent of parent (PGV04) of 83%.

Substance “B.YU2gp120 core (ΔV1, V2, V3 loops) G327R” has a percent of parent (B6) of 95%, a percent of parent (VRC01 [2]) of 95% and a percent of parent (B12) of 90%. It also gave a percent of parent (PGV04) of 89%.

Substance “B.YU2gp120 core (ΔV1, V2, V3 loops) G434K” has a percent of parent (B6) of 85%, a percent of parent (VRC01 [2]) of 85% and a percent of parent (B12) of 76%. It also gave a percent of parent (PGV04) of 85%.

“B.YU2gp120 core (ΔV1, V2, V3 loops) G459E” gave a percent of parent (B6) of 99%, a percent of parent (VRC01 [2]) of 28% and a percent of parent (B12) of 105%. The percent of parent (PGV04) was 8%.

In the case of “B.YU2gp120 core (ΔV1, V2, V3 loops) G473R”, the percent of parent (B6) was 78%, the percent of parent (VRC01 [2]) was 19% and the percent of parent (B12) was 113%. The percent of parent (PGV04) was 17%.

With “B.YU2gp120 core (ΔV1, V2, V3 loops) H216Y” the percent of parent (B6) was 99%, the percent of parent (VRC01 [2]) was 104% and the percent of parent (B12) was 108%. For the same substance, the percent of parent (PGV04) was 96%.

“B.YU2gp120 core (ΔV1, V2, V3 loops) I467K” showed a percent of parent (B6) of 93%, a percent of parent (VRC01 [2]) of 48% and a percent of parent (B12) of 51%. For the same substance, the percent of parent (PGV04) was 43%.

Substance “B.YU2gp120 core (ΔV1, V2, V3 loops) K121T” has a percent of parent (B6) of 102%, a percent of parent (VRC01 [2]) of 80% and a percent of parent (B12) of 100%. The percent of parent (PGV04) was 73%.

Work on “B.YU2gp120 core (ΔV1, V2, V3 loops) K231T” yielded a percent of parent (B6) of 94%, a percent of parent (VRC01 [2]) of 74% and a percent of parent (B12) of 98%.

Substance “B.YU2gp120 core (ΔV1, V2, V3 loops) K282V” has a percent of parent (B6) of 61%, a percent of parent (VRC01 [2]) of 50% and a percent of parent (B12) of 51%. The percent of parent (PGV04) was 74%.

For “B.YU2gp120 core (ΔV1, V2, V3 loops) K490S”, the percent of parent (VRC01 [2]) was 75% and the percent of parent (B12) was 89%.

Work on “B.YU2gp120 core (ΔV1, V2, V3 loops) L265R” yielded a percent of parent (B6) of 85%, a percent of parent (VRC01 [2]) of 88% and a percent of parent (B12) of 91%. It also gave a percent of parent (PGV04) of 79%.

“B.YU2gp120 core (ΔV1, V2, V3 loops) L405D” was tested, and the percent of parent (B6) was 99%, the percent of parent (VRC01 [2]) was 109% and the percent of parent (B12) was 80%. The percent of parent (PGV04) was 104%.

“B.YU2gp120 core (ΔV1, V2, V3 loops) N197K” was tested, and the percent of parent (B6) was 93%, the percent of parent (VRC01 [2]) was 86% and the percent of parent (B12) was 89%. The percent of parent (PGV04) was 86%.

Substance “B.YU2gp120 core (ΔV1, V2, V3 loops) Q337V” has a percent of parent (B6) of 87%, a percent of parent (VRC01 [2]) of 91% and a percent of parent (B12) of 88%. It also gave a percent of parent (PGV04) of 89%.

With “B.YU2gp120 core (ΔV1, V2, V3 loops) Q344V” the percent of parent (B6) was 96%, the percent of parent (VRC01 [2]) was 82% and the percent of parent (B12) was 94%. The percent of parent (PGV04) was 79%.

Work on “B.YU2gp120 core (ΔV1, V2, V3 loops) Q442V” yielded a percent of parent (B6) of 95%, a percent of parent (VRC01 [2]) of 97% and a percent of parent (B12) of 72%. For the same substance, the percent of parent (PGV04) was 92%.

For “B.YU2gp120 core (ΔV1, V2, V3 loops) R403V”, the percent of parent (B6) was 96%, the percent of parent (VRC01 [2]) was 99% and the percent of parent (B12) was 76%. The percent of parent (PGV04) was 94%.

“B.YU2gp120 core (ΔV1, V2, V3 loops) R412V” was tested, and the percent of parent (B6) was 99%, the percent of parent (VRC01 [2]) was 104% and the percent of parent (B12) was 87%. For the same substance, the percent of parent (PGV04) was 100%.

“B.YU2gp120 core (ΔV1, V2, V3 loops) R419G” showed a percent of parent (B6) of 98%, a percent of parent (B12) of 13% and a percent of parent (PGV04) of 65%.

“B.YU2gp120 core (ΔV1, V2, V3 loops) R476V” was tested, and the percent of parent (B6) was 13%, the percent of parent (VRC01 [2]) was 62% and the percent of parent (B12) was 97%. For the same substance, the percent of parent (PGV04) was 91%.

Work on “B.YU2gp120 core (ΔV1, V2, V3 loops) S365K” yielded a percent of parent (B6) of 97%, a percent of parent (VRC01 [2]) of 31% and a percent of parent (B12) of 28%. For the same substance, the percent of parent (PGV04) was 8%.

In the case of “B.YU2gp120 core (ΔV1, V2, V3 loops) S446K”, the percent of parent (B6) was 100%, the percent of parent (VRC01 [2]) was 108% and the percent of parent (B12) was 113%. For the same substance, the percent of parent (PGV04) was 104%.

Substance “B.YU2gp120 core (ΔV1, V2, V3 loops) T240K” has a percent of parent (B6) of 95%, a percent of parent (VRC01 [2]) of 92% and a percent of parent (B12) of 101%. The percent of parent (PGV04) was 88%.

Substance “B.YU2gp120 core (ΔV1, V2, V3 loops) T278K” has a percent of parent (B6) of 98%, a percent of parent (VRC01 [2]) of 196% and a percent of parent (B12) of 89%. For the same substance, the percent of parent (PGV04) was 122%.

In the case of “B.YU2gp120 core (ΔV1, V2, V3 loops) T455E”, the percent of parent (B6) was 92%, the percent of parent (VRC01 [2]) was 49% and the percent of parent (B12) was 14%. The percent of parent (PGV04) was 31%.

Work on “B.YU2gp120 core (ΔV1, V2, V3 loops) V200K” yielded a percent of parent (B6) of 90%, a percent of parent (VRC01 [2]) of 99% and a percent of parent (B12) of 94%. The percent of parent (PGV04) was 96%.
